Data from patent US7521540B2, “CYR61 compositions and methods” (Munin Corporation, priority 1996, dated 2009).

Legend:
[1] = Heparin binding assay (salt elution from heparin-Sepharose/agarose); conditions: for NaCl concentration of elution from heparin-Sepharose/agarose: increasing salt concentrations
HUVE cells = assay: Fisp12 cell attachment assay, HUVE cells; format: cell-based, human; conditions: coating 20 μg/ml, HUVE cells
Experimental: (§1) The capacity of Fisp12 to affect cell adhesion was also investigated. Fisp12 cell attachment assays were performed essentially as described (Oliver et al., [1989]). 96-well immunological plates were coated for 16 hours at 4° C. with 20 μg/ml Cyr61, Fisp12 or fibronectim (Gibco BRL) in PBS containing 0.1 mg/ml BSA and blocked with 10 mg/ml BSA for 1 hour at room temperature. HUVE cells were plated at 10^4 cells/well in F12K media with 10% FBS (Hyclone Laboratories, Inc., Logan, Utah); NIH 3T3 fibroblasts were plated at 3×10^4 cells/well and Mv1Lu cells were plated at 5×10^4 cells/well in minimal essential medium (MEM) with 10% FBS. After 1 hour incubation cells were fixed, stained with methylene blue and quantified as described (Oliver et al., [1989]). Cell spreading was examined on cells plated on 100 mm polystyrene petri dishes coated with 2.5 ml of a 20 μg/ml solution of Cyr61, Fisp12 or fibronectin. 10^7 cells were plated on each dish and cell spreading was analyzed 90 minutes after plating by microscopy at 100× magnification.

NIH 3T3 fibroblasts = assay: Fisp12/Cyr61 cell attachment and spreading, NIH 3T3; format: cell-based, mouse; conditions: for cell attachment to coated dishes: coating 20 μg/ml, NIH 3T3 fibroblasts
Experimental: Another embodiment of the invention is directed to the use of Cyr61 to mediate cellular attachment to the extracellular matrix. Induction of cellular adhesion was investigated using murine Cyr61, fibronectin, and bovine serum albumin (BSA). Immunological 96-well plates (Falcon brand) were coated with 50 μl of 0.1% BSA in PBS at 4° C. in the presence of 0-30 μg/ml concentrations of murine Cyr61 or fibronectin. After two hours exposure to the coating solution, non-diluted immune or pre-immune antisera (30 μl/well), or affinity-purified anti-Cyr61 antibodies were added. For some wells, the coating mixture was adjusted to 10 mM DTT or 100 mM HCl. After 16 hours incubation, the coating solution was removed and the well surface was blocked with 1% BSA in phosphate-buffered saline (PBS) for 1 hour at room temperature. HUVE cells were plated in Ham's complete F12K medium [GIBCO-BRL, Inc.; Ham, Proc. Natl. Acacd. Sci. (USA) 53:786 (1965)] at 5×10^3-10^4 cells/well. Cycloheximide was added to 100 μg/ml immediately before plating and monensin was added to 1 μM 14 hours before plating. After a 2-hour incubation at 37° C., the wells were washed with PBS and attached cells were fixed and stained with methylene blue. The attachment efficiency was determined by quantitative dye extraction and measurement of the extract absorbance at 650 nm. Oliver et al., J. Cell. Sci. 92:513-518 (1989).
as §1

[2] = test system: mink lung epithelial (Mv1Lu) cells; assay: Fisp12 cell attachment assay, Mv1Lu cells; format: cell-based; conditions: coating 20 μg/ml
Experimental: as §1

[3] = test system: mink lung epithelial cells (Mv1lu, CCL64); assay: TGF-β inhibition of DNA synthesis; format: cell-based; conditions: 2 μg/ml, 18 hours
Experimental: DNA synthesis for HUVE cells and NIH 3T3 fibroblasts was measured by thymidine incorporation as described previously (Kireeva et al., [1996]) with minor modifications. HUVE cells were grown in 24-well plates to a subconfluent state, serum-starved for 24 hours and treated with F12K medium containing 10% fetal bovine serum (FBS), 1 μCi/ml [^3H]-thymidine and 10 ng/ml basic Fibroblast Growth Factor (bFGF) (Gibco-BRL, Inc.) with various concentrations of Cyr61 and Fisp12 as indicated. NIH 3T3 fibroblasts were grown to subconlfluence, serum-starved for 48 hours, and treated with Minimal Essential Medium (MEM) containing 0.5% FBS, 1 μCi/ml [^3H]-thymidine, bFGF and various concentrations of Cyr61 or Fisp12. Thymidine incorporation into the trichloroacetic acid-insoluble fraction was determined after 24 hour incubation. Logarithmically grown mink lung epithelial cells (Mv1lu, CCL64) were treated with various concentrations of TGF-β1 (Gibco-BRL) and 2 μg/ml of Cyr61 or Fisp12 for 18 hours; [^3H]-thymidine was then added to 1 μCi/ml for 2 hours. Thymidine incorporation was determnined as described above.

platelets = assay: Platelet adhesion assay; format: cell-based, human; conditions: for adhesion of unactivated platelets: PGl2 100 nM, coating 25 μg/ml; for adhesion of activated platelets: thrombin, U46619 or ADP
Experimental: Microtiter wells were coated with purified recombinant Fisp12/mCTGF or Cyr61, and the adhesion of isolated platelets to these proteins was detected with ^125I-mAb15, an anti-β3 monoclonal antibody (Frelinger et al., J. Biol. Chem 265:6346-6352 [1990]). Platelets were obtained from venous blood drawn from healthy donors and collected into acid-citrate-dextrose (ACD). Washed platelets were prepared by diffenential centrifugation as described (Kinlough-Rathbone et al. Thromb. Haemostas 2:291-308 [1997]), and finally resuspended in HEPES-Tyrode's buffer (5 mM HEPES, pH 7.35, 1 mM MgCl2, 1 mM CaCl2, 135 mM NaCl, 2.7 mM KCl, 11.9 mM NaHCO3, 1 mg/ml dextrose and 3.5 mg/ml BSA). The platelet concentration was adjusted to […].
Microtiter wells (Immulon 2 removawell strips, Dynex Technologies, Inc.) were coated with Cyr61, Fisp12/mCTGF, or fibrinogen (25 μg/ml, 50 μl/well) incubated overnight at 22° C., and then blocked with 3% BSA at 37° C. for 2 hours. Washed platelets were added to the wells (100 μl/well) in the presence and absence of platelet agonists and incubated at 37° C. for 30 minutes. The wells were washed with HEPES-Tyrode's buffer and adherent platelets were detected with ^125I-mAb15, an anti-β3 monoclonal antibody. Exposure to the labeled antibody ([…], 50 μl/well) proceeded for 1 hour at 22° C. After extensive washing with HEPES-Tyrode's buffer, bound radioactivity was determined by γ-counting. In inhibition studies, washed platelets were pre-incubated with blocking peptides or antibodies at 37° C. for 15 minutes prior to addition to microtiter wells.
The anti-β3 antibody was radioiodinated with carrier-free Na^125I (Amersham Corp.) using the IODO-BEADS iodination reagent (Pierce) to a specific activity of approximately 2 μCi/μg. […] As controls, BSA- and fibrinogen-coated (KabiVitrum Inc.) wells were also used. Initially, the adhesion of unactivated versus activated platelets to immobilized Fisp12/mCTGF and Cyr61 was compared. To ensure that plateltes were not activated during the washing procedures, PGl2 (100 nM), which inhibits activation by raising platelet cAMP levels, was added to the platelet suspensions. […]

B1: Fisp12: Cysteine-rich murine protein, SEQ ID NO:6, mouse ortholog of CTGF (protein, listed as Mus musculus)
chain: MLASVAGPISLALVLLALCTRPATGQDCSAQCQCAAEAAPHCPAGVSLVLDGCGCCRVCAKQLGELCTERDPCDPHKGLFCDFGSPANRKIGVCTAKDGAPCVFGGSVYRSGESFQSSCKYQCTCLDGAVGCVPLCSMDVRLPSPDCPFPRRVKLPGKCCKEWVCDEPKDRTAVGPALAAYRLEDTFGPDPTMMRANCLVQTTEWSACSKTCGMGISTRVTNDNTFCRLEKQSRLCMVRPCEADLEENIKKGKKCIRTPKIAKPVKFELSGCTSVKTYRAKFCGVCTDGRCCTPHRTTTLPVEFKCPDGEIMKKNMMFIKTCACHYNCPGDNDIFESLYYRKMYGDMA
NaCl concentration of elution from heparin-Sepharose/agarose [1]: 0.2 to 0.6 M NaCl | peak elution from heparin agarose ([1]; metabolically labeled cell lysates): 0.4 M NaCl | cell attachment to coated dishes (HUVE cells): promoted the attachment | cell attachment to coated dishes (NIH 3T3 fibroblasts): promoted the attachment | cell spreading (NIH 3T3 fibroblasts; dishes coated with 20 μg/ml, 90 minutes): promotes cell spreading | cell attachment to coated dishes [2]: promoted the attachment | effect on TGF-β inhibition of DNA synthesis [3]: enhanced the ability of TGF-β to inhibit DNA synthesis | adhesion of unactivated platelets (platelets): failed to adhere | adhesion of activated platelets (platelets): dramatic increase in platelte adhesion

B2: Cyr61: Cysteine-rich ECM signaling protein; murine sequence SEQ ID NO:2, recombinant from Baculovirus-infected Sf9 cells (protein, listed as Mus musculus)
chain: MSSSTFRTLAVAVTLLHLTRLALSTCPAACHCPLEAPKCAPGVGLVRDGCGCCKVCAKQLNEDCSKTQPCDHTKGLECNFGASSTALKGICRAQSEGRPCEYNSRIYQNGESFQPNCKHQCTCIDGAVGCIPLCPQELSLPNLGCPNPRLVKVSGQCCEEWVCDEDSIKDSLDDQDDLLGLDASEVELTRNNELIAIGKGSSLKRLPVFGTEPRVLFNPLHAHGQKCIVQTTSWSQCSKSCGTGISTRVTNDNPECRLVKETRICEVRPCGQPVYSSLKKGKKCSKTKKSPEPVRFTYAGCSSVKKYRPKYCGSCVDGRCCTPLQTRTVKMRFRCEDGEMFSKNVMMIQSCKCNYNCPHPNEASFRLYSLFNDIHKFRD
NaCl concentration of elution from heparin-Sepharose/agarose [1]: 0.8-1.0 M NaCl | cell attachment to coated dishes (HUVE cells): promoted the attachment | cell attachment to coated dishes (NIH 3T3 fibroblasts): promoted the attachment | attachment of NIH 3T3 cells to murine Cyr61-coated surfaces (NIH 3T3 fibroblasts; method of b177): promoted the attachment of NIH 3T3 cells, though less effectively than fibronectin | cell attachment to coated dishes [2]: promoted the attachment | effect on TGF-β inhibition of DNA synthesis [3]: enhanced the ability of TGF-β to inhibit DNA synthesis | adhesion of unactivated platelets (platelets): failed to adhere | adhesion of activated platelets (platelets): dramatic increase in platelte adhesion
